This note sets out measurements from patent US20130129767A1.

In assay [1] the target is bovine serum albumin (bovine) (UniProt P02769). Nature of the assay: static adhesion assay, IEs on coated BSA.
Assay [2] addresses decorin: CSPG (Chondroitin Sulfate Proteoglycan, Sigma) (bovine) (UniProt P21793). Nature of the assay: static adhesion assay, IEs on coated CSPG.
UniProt P21793, sequence (P21793 31-360 limits assumed): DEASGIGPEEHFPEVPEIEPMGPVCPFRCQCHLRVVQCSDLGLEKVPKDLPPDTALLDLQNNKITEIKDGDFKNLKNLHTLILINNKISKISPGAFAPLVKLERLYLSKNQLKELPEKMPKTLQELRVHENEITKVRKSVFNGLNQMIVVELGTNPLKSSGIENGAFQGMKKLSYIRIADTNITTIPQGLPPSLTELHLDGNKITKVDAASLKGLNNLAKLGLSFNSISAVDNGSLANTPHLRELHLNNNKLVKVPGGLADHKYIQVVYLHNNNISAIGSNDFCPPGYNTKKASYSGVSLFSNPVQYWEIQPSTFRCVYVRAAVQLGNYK

UniProt P02769, sequence (P02769 25-607 limits assumed): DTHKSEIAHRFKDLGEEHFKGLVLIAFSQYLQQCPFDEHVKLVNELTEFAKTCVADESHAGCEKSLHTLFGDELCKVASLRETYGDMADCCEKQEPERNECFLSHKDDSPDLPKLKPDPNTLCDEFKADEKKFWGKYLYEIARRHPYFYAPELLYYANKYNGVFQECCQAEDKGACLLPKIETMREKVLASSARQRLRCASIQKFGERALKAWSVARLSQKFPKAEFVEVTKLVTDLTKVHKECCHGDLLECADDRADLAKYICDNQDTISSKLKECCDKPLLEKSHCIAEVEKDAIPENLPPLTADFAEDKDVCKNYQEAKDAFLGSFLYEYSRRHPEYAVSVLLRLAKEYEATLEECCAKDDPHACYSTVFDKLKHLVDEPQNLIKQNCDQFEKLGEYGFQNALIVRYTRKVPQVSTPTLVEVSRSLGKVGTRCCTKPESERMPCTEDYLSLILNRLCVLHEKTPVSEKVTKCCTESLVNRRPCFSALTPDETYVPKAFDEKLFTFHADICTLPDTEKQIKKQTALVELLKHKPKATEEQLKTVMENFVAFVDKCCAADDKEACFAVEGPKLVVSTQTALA

The substance “surface of P. falciparum-infected erythrocytes of isolate 1MH016 (naturally infected pregnant person, Benin)” returned a Bound IEs/mm^2 on BSA in assay [1] of 2 IEs/mm^2. In assay [2], this substance gave a Bound IEs/mm^2 on CSPG of 178 IEs/mm^2.

For “surface of P. falciparum-infected erythrocytes of isolate CM0437 (naturally infected pregnant person, Benin)”, the Bound IEs/mm^2 on BSA in assay [1] was determined as 1 IEs/mm^2. Besides, the Bound IEs/mm^2 on CSPG in assay [2] was 736 IEs/mm^2.

In assay [1], “surface of P. falciparum-infected erythrocytes of isolate CM0425 (naturally infected pregnant person, Benin)” registered a Bound IEs/mm^2 on BSA of 1 IEs/mm^2. In assay [2], this substance came in with a Bound IEs/mm^2 on CSPG of 1040 IEs/mm^2.

Take “surface of P. falciparum-infected erythrocytes of isolate WP0140 (naturally infected pregnant person, Benin)”: the Bound IEs/mm^2 on BSA in assay [1] was 2.5 IEs/mm^2. This substance had a Bound IEs/mm^2 on CSPG in assay [2] of 244 IEs/mm^2.

In assay [1], “surface of P. falciparum-infected erythrocytes of isolate WP0161 (naturally infected pregnant person, Benin)” returned a Bound IEs/mm^2 on BSA of 1 IEs/mm^2. In assay [2], the Bound IEs/mm^2 on CSPG was 1300 IEs/mm^2.

For “surface of P. falciparum-infected erythrocytes of isolate AK366 (naturally infected pregnant person, Benin)”, the Bound IEs/mm^2 on BSA in assay [1] was determined as 0.5 IEs/mm^2. For the same substance, in assay [2], the Bound IEs/mm^2 on CSPG turned out to be 357 IEs/mm^2.

In assay [1], “surface of P. falciparum-infected erythrocytes of isolate WP0182 (naturally infected pregnant person, Benin)” came in with a Bound IEs/mm^2 on BSA of 2 IEs/mm^2. In assay [2], the Bound IEs/mm^2 on CSPG amounted to 339 IEs/mm^2.

With “surface of P. falciparum-infected erythrocytes of isolate WP0200 (naturally infected pregnant person, Benin)”, the Bound IEs/mm^2 on BSA in assay [1] was found to be 4.5 IEs/mm^2. Moreover, the Bound IEs/mm^2 on CSPG in assay [2] amounted to 185 IEs/mm^2.

For the substance “surface of P. falciparum-infected erythrocytes of isolate WP0168 (naturally infected pregnant person, Benin)”, the Bound IEs/mm^2 on BSA in assay [1] was 2 IEs/mm^2. Moreover, the Bound IEs/mm^2 on CSPG in assay [2] is 473 IEs/mm^2.

As for “surface of P. falciparum-infected erythrocytes of isolate CM0375 (naturally infected pregnant person, Benin)”, the Bound IEs/mm^2 on BSA in assay [1] stood at 5 IEs/mm^2. Besides, the Bound IEs/mm^2 on CSPG in assay [2] worked out at 63 IEs/mm^2.

Take “surface of P. falciparum-infected erythrocytes of isolate WP203 (naturally infected pregnant person, Benin)”: the Bound IEs/mm^2 on BSA in assay [1] is 1 IEs/mm^2. In assay [2], this substance yielded a Bound IEs/mm^2 on CSPG of 161 IEs/mm^2.

“surface of P. falciparum-infected erythrocytes of isolate CM445 (naturally infected pregnant person, Benin)” showed a Bound IEs/mm^2 on BSA in assay [1] of 1.5 IEs/mm^2. For the same substance, the Bound IEs/mm^2 on CSPG in assay [2] was 218 IEs/mm^2.

Turning to “surface of P. falciparum-infected erythrocytes of isolate AK357 (naturally infected pregnant person, Benin)”, the Bound IEs/mm^2 on BSA in assay [1] stood at 2.5 IEs/mm^2. Besides, in assay [2], the Bound IEs/mm^2 on CSPG turned out to be 337 IEs/mm^2.

Turning to “surface of P. falciparum-infected erythrocytes of isolate CM307 (naturally infected pregnant person, Benin)”, the Bound IEs/mm^2 on BSA in assay [1] amounted to 1 IEs/mm^2. Further, in assay [2], the Bound IEs/mm^2 on CSPG came to 623 IEs/mm^2.

In assay [1], “surface of P. falciparum-infected erythrocytes of isolate 1MMCH (naturally infected pregnant person, Benin)” showed a Bound IEs/mm^2 on BSA of 2.5 IEs/mm^2. Further, in assay [2], the Bound IEs/mm^2 on CSPG is 394 IEs/mm^2.
